Data published in publication PMC3140970, “The Eps8/IRSp53/VASP Network Differentially Controls Actin Capping and Bundling in Filopodia Formation” (PLoS Computational Biology, 2011).

Biological target: T1, His-IRSp53 (UniProt Q9UQB8 1-552)
T1 sequence (looked up): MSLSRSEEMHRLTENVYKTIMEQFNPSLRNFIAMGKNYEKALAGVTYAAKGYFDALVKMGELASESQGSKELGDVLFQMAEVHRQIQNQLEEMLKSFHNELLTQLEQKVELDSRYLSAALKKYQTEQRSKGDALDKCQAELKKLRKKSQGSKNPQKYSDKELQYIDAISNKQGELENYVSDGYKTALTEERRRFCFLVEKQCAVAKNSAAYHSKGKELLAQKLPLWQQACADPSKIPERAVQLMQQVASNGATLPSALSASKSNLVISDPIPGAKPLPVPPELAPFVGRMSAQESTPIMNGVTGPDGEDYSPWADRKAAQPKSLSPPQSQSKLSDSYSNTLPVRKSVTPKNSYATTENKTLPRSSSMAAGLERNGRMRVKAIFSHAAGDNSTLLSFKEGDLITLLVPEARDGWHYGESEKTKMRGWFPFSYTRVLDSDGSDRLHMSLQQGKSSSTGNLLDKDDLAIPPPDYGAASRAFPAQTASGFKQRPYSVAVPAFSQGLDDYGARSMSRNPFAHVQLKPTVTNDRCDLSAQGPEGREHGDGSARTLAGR
Test: far-Western, overlay or dot blot; 10 pmoles of His-IRSp53, GST-IRSp53-SH3 or BSA spotted onto nitrocellulose, incubated with increasing concentrations of purified VASP; anti-VASP immunoblot; fraction bound against total VASP; apparent dissociation constant
Settings: both partners purified

Kd: 12.5 nM
B1: VASP, recombinant, cleaved from GST (natural protein, human, UniProt P50552 1-380, looked up)
chain: MSETVICSSRATVMLYDDGNKRWLPAGTGPQAFSRVQIYHNPTANSFRVVGRKMQPDQQVVINCAIVRGVKYNQATPNFHQWRDARQVWGLNFGSKEDAAQFAAGMASALEALEGGGPPPPPALPTWSVPNGPSPEEVEQQKRQQPGPSEHIERRVSNAGGPPAPPAGGPPPPPGPPPPPGPPPPPGLPPSGVPAAAHGAGGGPPPAPPLPAAQGPGGGGAGAPGLAAAIAGAKLRKVSKQEEASGGPTAPKAESGRSGGGGLMEEMNAMLARRRKATQVGEKTPKDESANQEEPEARVPAQSESVRRPWEKNSTTLPRMKSSSSVTTSETQPCTPSSSDYSDLQRVKQELLEEVKKELQKVKEEIIEAFVQELRKRGSP
notes: also called purified VASP; recombinant human VASP
